In the DeepSol protein solubility set:

test: soluble on expression in E. coli; label from the status in PepcDB or PDB records

Sequence | soluble on expression in E. coli
MGSSHHHHHHSSGLVPRGSHMQQKLTSPDNNLVMTFQVDSKGAPTYELTYKNKVVIKPSTLGLELKKEDNTRTDFDWVDRRDLTKLDSKTNLYDGFEVKDTQTATFDETWQPVWGEEKEIRNHYNELAVTLYQPMNDRSIVIRFRLFNDGLGFRYEFPQQKSLNYFVIKEEHSQFGMNGDHIAFWIPGDYDTQEYDYTISRLSEIRGLMKEAITPNSSQTPFSQTGVQTALMMKTDDGLYINLHEAALVDYSCMHLNLDDKNMVFESWLTPDAKGDKGYMQTPCNTPWRTIIVSDDARNILASRITLNLNEPCKIADAASWVKPVKYIGVWWDMITGKGSWAYTDELTSVKLGETDYSKTKPNGKHSANTANVKRYIDFAAAHGFDAVLVEGWNEGWEDWFGNSKDYVFDFVTPYPDFDVKEIHRYAARKGIKMMMHHETSASVRNYERHMDKAYQFMADNGYNSVKSGYVGNIIPRGEHHYGQWMNNHYLYAVKKAADYKIMVNAHEATRPTGICRTYPNLIGNESARGTEYESFGGNKVYHTTILPFTRLVGGPMDYTPGIFETHCNKMNPANNSQVRSTIARQLALYVTMYSPLQMAADIPENYERFMDAFQFIKDVALDWDETNYLEAEPGEYITIARKAKDTDDWYVGCTAGENGHTSKLVFDFLTPGKQYIATVYADAKDADWKENPQAYTIKKGILTNKSKLNLHAANGGGYAISIKEVKDKSEAKGLKRL | soluble
MSIEIANIKKSFGRTQVLNDISLDIPSGQMVALLGPSGSGKTTLLRIIAGLEHQTSGHIRFHGTDVSRLHARDRKVGFVFQHYALFRHMTVFDNIAFGLTVLPRRERPNAAAIKAKVTKLLEMVQLAHLADRYPAQLSGGQKQRVALARALAVEPQILLLDEPFGALDAQVRKELRRWLRQLHEELKFTSVFVTHDQEEATEVADRVVVMSQGNIEQADAPDQVWREPATRFVLEFMGEVNRLQGTIRGGQFHVGAHRWPLGYTPAYQGPVDLFLRPWEVDISRRTSLDSPLPVQVLEASPKGHYTQLVVQPLGWYNEPLTVVMHGDDAPQRGERLFVGLQHARLYNGDERIETRDEELALAQSA | soluble
MKVFLYDTNLILASRVRSLLSSQGFEISDKEEACAGVVNLESPKGLEVVKELKEKGKKVVGYCGHKNVPLIQKAKELGVDEVIPNSQVVTSLGEILKKLCS | not soluble
HYIFPHARIKITRDSKDHTVSGNGLGIRIVGGKEIPGHSGEIGAYIAKILPGGSAEQTGKLMEGMQVLEWNGIPLTSKTYEEVQSIISQQSGEAEICVRLDLNM | soluble
MGSDKIHHHHHHEIRENLLGNYSDRVLVVSHRADWRNAPENSLQGIRNCIDMGVDMVEIDLKKTKDGHLVIMHDKTINRTMTGKGNAEDYTLAELKAMRLKNGAGCKTRHQIPTLEEVMLLCKGKIMVNIDKGYDYFQEAYAVLEKTGTIDHCVIKAGLPYERVKAENGDVLDKVIFMPIVNLHKEGAEKIINDYQSHMKPTAYELVFNDDNEEILRLIRKVRDSGAKLFINSLWPELCGGHDDDRAVELHQPDESWGWILNQGAKLIQTDRPALLLEYLRKKKLHD | not soluble
MDQALYSLETRFEQFQRYEQIFGFLFDLKKLQSASDDSLMASCTNLKDALTHGTHSDILASDLFYELKILREALPKEVRRPIEVLDFLQKVEGCYPNSWIAYQVLLTIPVSVASAERSFSKLKLIKSYLRSSMSQERLSDLAILSIERALVREVDFERLANDFVGKKGRRITL | soluble
MAPRKRSHHGLGFLCCFGGSDIPEINLRDNHPLQFMEFSSPISNAEELNIRFAELVDELDLTDKNREAMFALPPEKKWQIYCSKKKVPSLTPLATSQGSWHGVALAALACSCIHLMFITCQPCSRCWRNNSE | soluble
MGSDKIHHHHHHMESLKKCFDLQGKEIVSIVGSGGKTSLMWALAKTYRKEAVLVSTTTKIGFPQRQLYDYFYTNHFEKITPNICGITLAGTAINNQTKLTMPAMTSFQTLFQHFTKVFLEADGSKQRPLKGWSSYEPVILKETTTTIGVLPISVIGQKIDETTIHRLPLFLELTDAQLQEPITETLLAQLIDHPKGLFKESQGQRILCLNQTHTRREFVQAMNVCLQLPKSCFEKLDKIIACNMELEKGLILWEKSVKTSKKN | not soluble
MKSRRAFITDAGGDHGSMNTQATPSPQFYLTAPATCPYLPNQMERKVFTHLVGPRAPEMNDLLTQGGFRRSQNIAYRPACETCRACVSVRILTEQFQPTKSMRRVLAANSDVVATVHAAEPSTEQFALFRRYLDHRHQSGGMSDMSALDYAIMVEDTHVNTRIIEYRVREPGSGIDSSKRGELLAVALSDVMSDGLSMVYSFFNPELEKRSLGTFMIIDHITRTRALGLPHVYLGYWVDGSEKMGYKTRYHPQEHLTPRGWEIYSPKEELEHHHHHH | not soluble
MEEDQEEPPSSSTSSESPEVVLKAPKAPTRRRKNSKKDRRQDMEVDDGEKESTAQYCKGFYDALRVMQTTNKYEFTGGAVSSPVLPVLQTAAFSPITPASASDMHTIVMSLLGNTPITSGPSIAPLSSPTLLPLVTSGDLDDLSMKILASSAIPGPPIISSSNSPDSSTTAVTTSQITAFQPLLNNFVSSTTASTSRPDKLNLTPPQQSAEIYAFNGVNSDDSDGGLDSRSASRCG | not soluble
MSLATEQIQHIAIVGCVHGKYREMYRQLSEYEKSTGKEISFVICTGDMQTLRYEADLVYLKVPPKYKQMGDFHLYYEGKEKAPYLTLFIGGNHESSNVLLHLYNGGFVCFNMYYLGVCSCININGLRIVGVSGIYKSFDEKKPYTYPPSPNDVVSLFHTRNYVIQMLSNLSQSSQIDISLSHDWPQGIVMKGNYKQLYRFQPGFKKDGASLGSPINKVILNTLKPKYWISGHMHCEYHAEEGPTHFIALGKIGYKNAISYLDLPLKQKTDLEYDKDWVCNLIMTWPAFSNKAQFPDLSYSISELLSKRTKELDKKIIELWEKYIGLKIIYDSEGHHHHHH | not soluble
DALEVAEKVTAVIFDKTGTLTKLKESAKPAVQELKRMGIKVGMITGDNWRSAEAISRELNLDLVIAEVLPHQKSEEVKKLQAKEVVAFVGDGINDAPALAQADLGIAVGSGDIVLIRDDLRDVVAAIQ | soluble
MGSDKIHHHHHHAADHVKGDGKLTSKKISVADYNEIKVDGVIDFNYEQSDDPSTVEVTVDQNLHPYVNIEVKDRVLTIAFKGAKVDHFTKFIVKTNSKWLAAAKVSGNANFMVNSPLTGDETVIKANANSLVQLKETVTVGKLDLNVSGSANMVVNHLEADKIECDIDGSGSITIKKGNAKEGDYSIVSSGDIHAFGLAVPQLSCKVTGNGLAEVHATDNLKANVVGKGNIRYKGPTAVQQRIIGKGTVEEVKE | not soluble
MSIQKLLSKARKAIQDFDMIQENDKIAVGLSGGKDSLTLLHILKSYQRFSPQNFELIAITLNTGGVDNSPLDKLCKEINVPFYEFQTDIKEIVFDIRQEKNPCALCANLRRGALNDNAKKLGCNKVALGHHKDDAIETFLMSMFYEGRVNCFSPKTYLDRQDLTVIRPMVYIEEYMTKKISKDSNYPIITNPCPANGHTRREYIKNLIANLNKEMPDFKRNVFGALNNSEKLFIWDKEKIKNFK | not soluble
MTARVIALDLDGTLLTPHKTLLPSSLEALSRAKEAGFQLIIVTGRHHVAIHPFYQALALETPAICCNGTYLYDYQAKTVLDADPMPVDKALQLIDLLDEHQIHGLMYVDDAMLYEHPTGHVVRTSRWAQTLPPEQRPTFTQVSSLAQAARDVNAVWKFALTDEDIPRLQRFGQHVEQALGLECEWSWHDQVDIARKGNSKGKRLTQWIEAQGGSMKNVIAFGDNYNDISMLEAAGTGVAMGNADEAVKARADVVIGDNTTDSIAKFIYTHLL | not soluble
AARSECKRSHKFVPGAWLAGEGVDVTSLRRSGSFPVDTQRFLRPDGTCTLCENALQEGTLQRLPLALTNWRAQGSGCQRHVTRAKVSSTEAVARDAARSIRNDWKVGLDVTPKPTSNVHVSVAGSHSQAANFAAQKTHQDQYSFSTDTVECRFYSFHVVHTPPLHPDFKRALGDLPHHFNASTQPAYLRLISNYGTHFIRAVELGGRISALTALRTCELALEGLTDNEVEDCLTVEAQVNIGIHGSISAEAKACEEKKKKHKMTASFHQTYRERHSEVVGGHHTSINDLLFGIQAGPEQYSAWVNSLPGSPGLVDYTLEPLHVLLDSQDPRREALRRALSQYLTDRARWRDCSRPCPPGRQKSPRDPCQCVCHGSAVTTQDCCPRQRGLAQLEVTFIQAWGLWGDWFTATDAYVKLFFGGQELRTSTVWDNNNPIWSVRLDFGDVLLATGGPLRLQVWDQDSGRDDDLLGTCDQAPKSGSHEVRCNLNHGHLKFRYHARCLPHLGGGTCLDYVPQMLLGEPPGNRSGAVW | soluble
MAHHHHHHMAASLSSSPVRHPIVDNAAVPAASHRIPPPLNGFAFLEHRRSALSHDTFIARDVRQQQHPEQQDNDPAKVIIRVYALEYLRRDEECRFALERECLTARLVVHPHLLPLGAPFASKTDLFVVEKYCAGGDLYELMVSLAKEDPIASEMGAAKGEAPPRSSTGLPTNTVKRFMRELLSAVQYLHRTCGLVHRNIKLETLFIDEEQHLRLGGFGLCAVLPPPSVVTGDREGALDAPDAPEDTASSSHEPLRLCCGSKHYAAPELVQGHPYQGEGVDAWACGVVLFALLTSCFPFDSDDGDEALFRLLCGDVEAHLAQHPAMAAIEDPQACDLVRNLLRPNPNARYTVSEALEHPYLWVA | not soluble
GPGSMMELPMEMNVDGVPMVLSKVSYSPMLDFGGTFSYRRYCFVGELQPEGYVNWFFAPLEGYKDKRLRVHESAVKEGALNHLVFMRLGELSFRQYKLKHIPSPTEQPHSPVTPQGDSTKQLMGHAHPHFNYIFEAMRQDQASSPSPRSSSIGSDCTYHSSKESCESLQMSSSLVDLPGKRLSNASLRSGVRPPLEARRGAVCDDEGFLPPVRSLKKSSERSQEL | not soluble
MNDTAGELEFVPLAANDDETVGQWLDLMALAAETGPRAAPPCNVDMVGSLRFAPPATALDDWVVRSGGRVVGALRLALPDGAPTARVDQLLVHPGRRRRGIGRALWAHARELARKHDRTTLTATVVESLPSGPAQDPGPAAFAAAMGAHRSDIPAGTHQWLDLDRHDPLADGVPAVPAGYSLVTWGTITPDEYAVPVSELELSLGAGPVDRAAQEVRTSYARQFETMRVGRGRRAYHTGAVHDATGALAGYTSVSKTTGNPAYALQGMTVVHREHRGHALGTLLKLANLEYVLRHEPEVRLVETANAEDNHPMIAVNAALGFEPYDRWVFWTAEAGPSD | soluble
MMRSLLSHPQPSHAIRSPAAACALALFLSGCQSLGTDGLTASNAPAEISGPAASAIAGDMVGRLAEQIGPGTATVSLKQDNSPFGQALEAALKGWGYAVVTDQKTDGVSRIVPLAYVVIPFEGQVLTRLSTNSIELGRAYIVTTSGAQPASALAVMKRGLEHHHHHH | not soluble
MRAELQAETEAERLERQAKLHELLHRLRGEPNVLLPFHQALALRPRGERHLGLRTIEVDKVVGSVDRYEDFDHRFLPKTPHTLERWKRLRALQLAGAEFPPIEVYQVGEAYFVKDGNHRVALAKATGQKFIDAHVIALDVPVPIEPGDTPKDLLLKAEYAHFLEKTRLKDLVPGAEEIRFTALGRYDRLLDHIATRRYFKGLEEGREISWEEAVVDWYENLYKPTVEAIRRLGLLRDFPGRTEADLYLWVMDHRYFLARELGVDPGPEGAAKSYEAHFGGVWKRLGGGLKRLLTGR | soluble
MSLQIVPYLIFNGNCREAFSCYHQHLGGTLEAMLPFGDSPECGDIPADWKDKIMHARLVVGSFALMASDNHPAYPYEGIKGCSISLNVDSKAEAERLFNALAEGGSVQMPLGPTFWAASFGMFTDRFGVAWMVNCEQDREGGSHHHHHH | soluble
